# According to patent US20240383953:
# Assays:
# [1] = system: HIV TAT cell-penetrating peptide (HIV); experiment: FP; details: given as Ka in nM; n=1.1±0.1; not all DNA bound at 0.9 uM in EMSA, no FCCS bridging
# [2] = system: T1, WR 1-3wRRK peptide (synthetic construct (human NANOG derived)); experiment: FP; details: given as Ka in nM; n=2.1±0.5; almost all DNA bound at 60 nM in EMSA
# T1 sequence: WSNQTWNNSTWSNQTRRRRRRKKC
# [3] = system: WR 1-4wRK peptide (synthetic construct (human NANOG derived)); experiment: FP; details: given as Ka in nM; cooperativity n=3.3±1.2
# [4] = system: WR 1-4wRK peptide (synthetic construct (human NANOG derived)); experiment: EMSA; details: 50% free DNA; DNA bridging by FCCS from 1 uM
# Sequence of WR 1-4wRK peptide (synthetic construct (human NANOG derived)) (chain, as listed by the source): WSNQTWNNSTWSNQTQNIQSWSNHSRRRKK
substance,measurement,setting,value
GATA6 40 bp DNA (two NANOG cognate sites),K half,[1],260 nM
same,K half,[2],180 nM
same,K half,[3],340 nM
same,K half,[4],1000 nM
